Experimental data from paper PMC5882805.

Key:
[1] = target: Islet amyloid polypeptide (IAPP), human (human) (UniProt P10997); test: FRET or BRET; diluted-FRET inside live INS-1 cells; 10 uM IAPP, no ADM-116 (toxic condition); donor:acceptor:unlabelled 1:1:500; 24 h
[2] = target: Islet amyloid polypeptide (IAPP), human (human) (UniProt P10997); test: FRET or BRET; diluted-FRET inside live INS-1 cells; 10 uM IAPP, no ADM-116 (toxic condition); donor:acceptor:unlabelled 1:1:500; 48 h
[3] = target: Islet amyloid polypeptide (IAPP), human (human) (UniProt P10997); test: FRET or BRET; diluted-FRET inside live INS-1 cells; 10 uM IAPP in the medium, equimolar ADM-116 added 3 h later (rescued condition); donor:acceptor:unlabelled 1:1:100; 24 h and 48 h
[4] = target: Islet amyloid polypeptide (IAPP), human (human) (UniProt P10997); test: FRET or BRET; diluted-FRET by confocal imaging on GPMVs from INS-1 cells; 50 uM IAPP, 5 uM phospholipid, no ADM-116 (10:1:0); donor:acceptor:unlabelled 1:1:500; first 34 min (small sieve size leakage)

FRETeff (single peak, rescued with ADM-116) [3]: 0.6
FRETeff (peak 1 of 4, first 34 min) [4]: 0.21
FRETeff (peak 2 of 4, first 34 min) [4]: 0.36
FRETeff (peak 3 of 4, first 34 min) [4]: 0.41
FRETeff (peak 4 of 4, first 34 min) [4]: 0.58
Substance: Islet amyloid polypeptide (IAPP), human (from UniProt P10997 34-70)
FRETeff (peak at 24 h) [1]: 0.36
FRETeff (peak at 48 h) [2]: 0.62
